B1: E3 ubiquitin-protein ligase CBL-B (Homo sapiens), Q13191 (parent)
chain: MANSMNGRNPGGRGGNPRKGRILGIIDAIQDAVGPPKQAAADRRTVEKTWKLMDKVVRLCQNPKLQLKNSPPYILDILPDTYQHLRLILSKYDDNQKLAQLSENEYFKIYIDSLMKKSKRAIRLFKEGKERMYEEQSQDRRNLTKLSLIFSHMLAEIKAIFPNGQFQGDNFRITKADAAEFWRKFFGDKTIVPWKVFRQCLHEVHQISSGLEAMALKSTIDLTCNDYISVFEFDIFTRLFQPWGSILRNWNFLAVTHPGYMAFLTYDEVKARLQKYSTKPGSYIFRLSCTRLGQWAIGYVTGDGNILQTIPHNKPLFQALIDGSREGFYLYPDGRSYNPDLTGLCEPTPHDHIKVTQEQYELYCEMGSTFQLCKICAENDKDVKIEPCGHLMCTSCLTAWQESDGQGCPFCRCEIKGTEPIIVDPFDPRDEGSRCCSIIDPFGMPMLDLDDDDDREESLMMNRLANVRKCTDRQNSPVTSPGSSPLAQRRKPQPDPLQIPHLSLPPVPPRLDLIQKGIVRSPCGSPTGSPKSSPCMVRKQDKPLPAPPPPLRDPPPPPPERPPPIPPDNRLSRHIHHVESVPSRDPPMPLEAWCPRDVFGTNQLVGCRLLGEGSPKPGITASSNVNGRHSRVGSDPVLMRKHRRHDLPLEGAKVFSNGHLGSEEYDVPPRLSPPPPVTTLLPSIKCTGPLANSLSEKTRDPVEEDDDEYKIPSSHPVSLNSQPSHCHNVKPPVRSCDNGHCMLNGTHGPSSEKKSNIPDLSIYLKGDVFDSASDPVPLPPARPPTRDNPKHGSSLNRTPSDYDLLIPPLGEDAFDALPPSLPPPPPPARHSLIEHSKPPGSSSRPSSGQDLFLLPSDPFVDLASGQVPLPPARRLPGENVKTNRTSQDYDQLPSCSDGSQAPARPPKPRPRRTAPEIHHRKPHGPEAALENVDAKIAKLMGEGYAFEEVKRALEIAQNNVEVARSILREFAFPPPVSPRLNL

The first test covers variants of B1. The settings on record: with cd2ap_human CD2AP.
Regarding R904G, the “effect of a mutation on the interaction” value was “decreasing interaction”.

Variants of B1 are the subject of another test. The following applies: with sh3k1_human SH3KBP1, Q96B97.
Chain of sh3k1_human SH3KBP1, Q96B97 (Q96B97 whole entry): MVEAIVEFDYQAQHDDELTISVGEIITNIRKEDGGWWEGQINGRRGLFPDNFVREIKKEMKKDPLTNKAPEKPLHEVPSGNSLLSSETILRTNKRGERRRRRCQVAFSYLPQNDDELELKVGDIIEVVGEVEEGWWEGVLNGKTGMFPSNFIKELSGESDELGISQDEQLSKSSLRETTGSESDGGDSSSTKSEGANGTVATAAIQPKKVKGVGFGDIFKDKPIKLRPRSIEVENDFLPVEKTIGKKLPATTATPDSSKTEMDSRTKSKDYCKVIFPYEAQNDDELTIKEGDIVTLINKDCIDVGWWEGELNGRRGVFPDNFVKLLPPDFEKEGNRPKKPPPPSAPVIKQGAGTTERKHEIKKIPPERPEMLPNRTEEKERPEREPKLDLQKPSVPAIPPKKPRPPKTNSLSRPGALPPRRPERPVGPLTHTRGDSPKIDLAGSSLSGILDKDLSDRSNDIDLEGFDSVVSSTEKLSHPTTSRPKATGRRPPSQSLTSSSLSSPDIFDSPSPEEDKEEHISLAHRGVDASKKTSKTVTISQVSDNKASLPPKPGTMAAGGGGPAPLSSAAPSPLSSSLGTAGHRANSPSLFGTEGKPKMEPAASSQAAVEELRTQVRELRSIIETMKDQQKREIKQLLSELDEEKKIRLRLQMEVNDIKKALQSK
Turning to R904G, the “effect of a mutation on the interaction” value is “decreasing interaction”.

Variants of B1 are the subject of another test. The following applies: with sh3k1_human SH3KBP1, Q96B97. This is another data set of the same source.
As for R911A, the “effect of a mutation on the interaction” value is “decreasing interaction”.

In another test the parent is B1. The following applies: with cd2ap_human CD2AP. This is another data set of the same source.
Regarding R911A, the “effect of a mutation on the interaction” value is given as “decreasing interaction”.

Variants of B1 are the subject of a further test. The following applies: with cd2ap_human CD2AP. The source holds these as a separate data set.
Take K907L: the “effect of a mutation on the interaction” value is “decreasing interaction”.

In the next test the parent is B1. The following applies: with sh3k1_human SH3KBP1, Q96B97. The source holds these as a separate data set.
In the case of K907L, the “effect of a mutation on the interaction” value is given as “decreasing interaction”.
